# T1: Mus81_(Δ21–24) of Mus81_(Δ21–24)–Mms4_(Δ40N) (S. cerevisiae, UniProt Q04149 1-632, Δ21–24)
# T1 sequence (looked up): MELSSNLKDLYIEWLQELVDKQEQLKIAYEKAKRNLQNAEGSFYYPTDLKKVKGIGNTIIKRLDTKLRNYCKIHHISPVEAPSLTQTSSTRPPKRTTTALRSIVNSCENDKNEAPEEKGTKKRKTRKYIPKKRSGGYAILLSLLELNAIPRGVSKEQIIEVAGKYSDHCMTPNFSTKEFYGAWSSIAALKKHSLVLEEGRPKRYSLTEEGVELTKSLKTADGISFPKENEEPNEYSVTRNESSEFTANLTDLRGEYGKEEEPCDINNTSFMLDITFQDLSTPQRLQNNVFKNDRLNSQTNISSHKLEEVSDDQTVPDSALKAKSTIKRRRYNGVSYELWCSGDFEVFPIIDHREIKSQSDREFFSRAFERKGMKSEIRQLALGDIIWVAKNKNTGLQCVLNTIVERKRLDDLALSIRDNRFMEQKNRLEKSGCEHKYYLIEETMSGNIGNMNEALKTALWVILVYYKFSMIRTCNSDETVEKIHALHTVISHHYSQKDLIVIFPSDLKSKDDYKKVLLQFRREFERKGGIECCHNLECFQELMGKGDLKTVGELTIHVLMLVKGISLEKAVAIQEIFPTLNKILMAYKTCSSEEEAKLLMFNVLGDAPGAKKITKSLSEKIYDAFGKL
# T2: Mus81_(Δ21–22) of Mus81_(Δ21–22)–Mms4_(Δ40N) (S. cerevisiae, UniProt Q04149 1-632, Δ21–22)
# T2 sequence (looked up): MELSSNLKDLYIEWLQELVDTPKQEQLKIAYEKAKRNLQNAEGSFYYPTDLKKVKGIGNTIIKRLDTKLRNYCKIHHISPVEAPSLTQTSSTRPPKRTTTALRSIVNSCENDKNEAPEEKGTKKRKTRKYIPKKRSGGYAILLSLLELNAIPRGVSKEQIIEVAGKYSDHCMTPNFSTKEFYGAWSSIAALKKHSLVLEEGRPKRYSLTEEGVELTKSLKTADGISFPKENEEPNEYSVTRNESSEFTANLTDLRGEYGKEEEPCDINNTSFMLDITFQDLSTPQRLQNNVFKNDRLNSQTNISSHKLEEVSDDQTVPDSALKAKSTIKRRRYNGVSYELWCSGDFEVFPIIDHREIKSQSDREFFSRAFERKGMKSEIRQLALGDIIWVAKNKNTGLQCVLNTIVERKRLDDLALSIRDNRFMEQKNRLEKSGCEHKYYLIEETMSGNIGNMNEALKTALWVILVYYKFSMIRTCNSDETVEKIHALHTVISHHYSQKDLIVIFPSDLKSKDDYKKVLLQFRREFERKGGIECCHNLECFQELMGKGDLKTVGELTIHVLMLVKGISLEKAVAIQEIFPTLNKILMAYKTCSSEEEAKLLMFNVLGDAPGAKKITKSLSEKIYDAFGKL
# B1: GST-Rad27 (natural protein, yeast, UniProt P26793 1-382, looked up)
# chain: MGIKGLNAIISEHVPSAIRKSDIKSFFGRKVAIDASMSLYQFLIAVRQQDGGQLTNEAGETTSHLMGMFYRTLRMIDNGIKPCYVFDGKPPDLKSHELTKRSSRRVETEKKLAEATTELEKMKQERRLVKVSKEHNEEAQKLLGLMGIPYIIAPTEAEAQCAELAKKGKVYAAASEDMDTLCYRTPFLLRHLTFSEAKKEPIHEIDTELVLRGLDLTIEQFVDLCIMLGCDYCESIRGVGPVTALKLIKTHGSIEKIVEFIESGESNNTKWKIPEDWPYKQARMLFLDPEVIDGNEINLKWSPPKEKELIEYLCDDKKFSEERVKSGISRLKKGLKSGIQGRLDGFFQVVPKTKEQLAAAAKRAQENKKLNKNKNKVTKGRR
# Key:
# Test in all cases: cell-based or functional assay
# [1] = target: T1, Mus81_(Δ21–24) of …
# [2] = target: T2, Mus81_(Δ21–22) of …
# [3] = target: B1
binder,measurement,setting,value
B1,"extent of stimulation by Rad27 of the endonuclease activity of Mus81_(Δ21–24)–Mms4_(Δ40N) on 3′F substrate, over increasing amounts of Rad27 (∼3–6-fold)",[1],~6 fold
same,"extent of stimulation by Rad27 of the endonuclease activity of Mus81_(Δ21–22)–Mms4_(Δ40N) on 3′F substrate, over increasing amounts of Rad27 (∼5–12-fold)",[2],~12 fold
"Mms4 of the wild-type Mus81–Mms4 complex (natural protein, budding yeast, UniProt P38257 1-691, looked up) MSQIVDFVEDKDSRNDASIQIIDGPSNVEIIALSESMDQDECKRAHVSSAEMIPSSPQRKSVSNDVENVDLNKSIELSAPFFQDISISKLDDFSTTVNSIIDSSLRNENNAKGNAKKLLDDLISDEWSADLESSGKKHNKSQYNLRDIAEKWGVQSLKNPEPIAVDCEYKTQGIGKTNSDISDSPKSQIGAADILFDFPLSPVKHENPTEEKHNSIANENSSPDNSLKPAGKQNHGEDGTSMAKRVYNKGEDEQEHLPKGKKRTIALSRTLINSTKLPDTVELNLSKFLDSSDSITTDVLSTPAKGSNIVRTGSQPIFSNANCFQEAKRSKTLTAEDPKCTKNTAREVSQLENYIAYGQYYTREDSKNKIRHLLKENKNAFKRVNQIYRDNIKARSQMIIEFSPSLLQLFKKGDSDLQQQLAPAVVQSSYNDSMPLLRFLRKCDSIYDFSNDFYYPCDPKIVEENVLILYYDAQEFFEQYTSQKKELYRKIRFFSKNGKHVILILSDINKLKRAIFQLENEKYKARVEQRLSGTEEALRPRSKKSSQVGKLGIKKFDLEQRLRFIDREWHVKIHTVNSHMEFINSLPNLVSLIGKQRMDPAIRYMKYAHLNVKSAQDSTETLKKTFHQIGRMPEMKANNVVSLYPSFQSLLEDIEKGRLQSDNEGKYLMTEAVEKRLYKLFTCTDPNDTIE","stimulation of Rad27 (0.1 fmol) cleavage of 5′DF substrate by the Mus81–Mms4 complex (0, 25, 50 fmol; ∼2–4 fold told of the Mus81 complexes)",[3],2 to 4 fold
"Mms4_(Δ40N) (domain or fragment, budding yeast, UniProt P38257 41-691, looked up) ECKRAHVSSAEMIPSSPQRKSVSNDVENVDLNKSIELSAPFFQDISISKLDDFSTTVNSIIDSSLRNENNAKGNAKKLLDDLISDEWSADLESSGKKHNKSQYNLRDIAEKWGVQSLKNPEPIAVDCEYKTQGIGKTNSDISDSPKSQIGAADILFDFPLSPVKHENPTEEKHNSIANENSSPDNSLKPAGKQNHGEDGTSMAKRVYNKGEDEQEHLPKGKKRTIALSRTLINSTKLPDTVELNLSKFLDSSDSITTDVLSTPAKGSNIVRTGSQPIFSNANCFQEAKRSKTLTAEDPKCTKNTAREVSQLENYIAYGQYYTREDSKNKIRHLLKENKNAFKRVNQIYRDNIKARSQMIIEFSPSLLQLFKKGDSDLQQQLAPAVVQSSYNDSMPLLRFLRKCDSIYDFSNDFYYPCDPKIVEENVLILYYDAQEFFEQYTSQKKELYRKIRFFSKNGKHVILILSDINKLKRAIFQLENEKYKARVEQRLSGTEEALRPRSKKSSQVGKLGIKKFDLEQRLRFIDREWHVKIHTVNSHMEFINSLPNLVSLIGKQRMDPAIRYMKYAHLNVKSAQDSTETLKKTFHQIGRMPEMKANNVVSLYPSFQSLLEDIEKGRLQSDNEGKYLMTEAVEKRLYKLFTCTDPNDTIE","stimulation of Rad27 (0.1 fmol) cleavage of 5′DF substrate by the Mus81–Mms4_(Δ40N) and Mus81_(Δ120N)–Mms4_(Δ40N) complexes (0, 25, 50 fmol; ∼2–4 fold told of the Mus81 complexes)",[3],2 to 4 fold

# From article PMC4330386 (Nucleic Acids Research, 2015)
